According to patent US20120135022A1:

How the values were obtained:
[1] = target: AAV2 capsid protein VP3 (AAV2) (UniProt P03135); test: cell-based or functional assay
[2] = target: AAV1 capsid protein VP3 (AAV1); test: cell-based or functional assay

Sequence of UniProt P03135 (P03135 203-735 limits assumed): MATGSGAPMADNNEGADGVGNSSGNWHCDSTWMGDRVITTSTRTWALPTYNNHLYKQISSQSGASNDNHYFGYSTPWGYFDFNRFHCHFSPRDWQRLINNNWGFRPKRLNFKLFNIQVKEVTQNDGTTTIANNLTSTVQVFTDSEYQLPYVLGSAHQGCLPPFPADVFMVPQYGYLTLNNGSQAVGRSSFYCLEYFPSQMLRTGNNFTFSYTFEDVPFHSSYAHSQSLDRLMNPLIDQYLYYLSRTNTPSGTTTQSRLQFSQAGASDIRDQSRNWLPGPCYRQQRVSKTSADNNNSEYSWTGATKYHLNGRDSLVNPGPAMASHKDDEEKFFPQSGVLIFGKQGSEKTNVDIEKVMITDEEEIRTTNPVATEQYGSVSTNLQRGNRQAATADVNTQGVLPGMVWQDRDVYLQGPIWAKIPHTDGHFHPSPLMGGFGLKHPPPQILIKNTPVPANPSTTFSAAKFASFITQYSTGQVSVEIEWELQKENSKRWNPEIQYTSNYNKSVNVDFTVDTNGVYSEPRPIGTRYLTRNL

## C-terminally truncated AAP (AAPtru) of AAV2 expressed from pVP2N-gfp (from UniProt D5SGZ8 2-177)
[1]
  Particle titer (AAV2 capsid ELISA) after trans-complementation: 2.1e+11
[2]
  Particle titer (AAV1 capsid ELISA) after trans-complementation: 3.4e+10
